Reference: the supplement of paper PMC10567573

B1: ALKBH7 (parent)
chain: SVICRSLPEGMGPGESGQPPPAC

Variants of: B1
Experiment: protein stability index of a GFP-peptide fusion (GPS, HEK-293T) (PSI 1-6); higher = more stable
Settings: c terminus: native
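Note: lentivirally expressed fusions sorted by FACS into six bins by GFP to DsRed ratio, PSI derived from sequencing read proportions per bin multiplied by bin number.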

Variant	protein stability index
SVICRSLPEGMEPGESGQPPPAC [G12E]	2.85
SVICRSLPEGMDPGESGQPPPAC [G12D]	2.52
SVICRSLPEGMHPGESGQPPPAC [G12H]	1.69
SVICRSLVEGMGPGESGQPPPAC [P8V]	1.42
SVICRSLHEGMGPGESGQPPPAC [P8H]	2.94
SVICRSLSEGMGPGESGQPPPAC [P8S]	2.32
SVICRSLGEGMGPGESGQPPPAC [P8G]	2.19
SVICRSLTEGMGPGESGQPPPAC [P8T]	1.67
SVICRSLAEGMGPGESGQPPPAC [P8A]	2.08
SVICRSLWEGMGPGESGQPPPAC [P8W]	2.01
SVICRSLIEGMGPGESGQPPPAC [P8I]	1.65
SVICRSLEEGMGPGESGQPPPAC [P8E]	2.46
SVICRSLMEGMGPGESGQPPPAC [P8M]	2.93
SVICRSLNEGMGPGESGQPPPAC [P8N]	2.48
SVICRSLQEGMGPGESGQPPPAC [P8Q]	2.53
SVICRSLPEDMGPGESGQPPPAC [G10D]	2.29
SVICRSLPENMGPGESGQPPPAC [G10N]	1.5
SVICRSLPERMGPGESGQPPPAC [G10R]	1.76
SVICRSLPEMMGPGESGQPPPAC [G10M]	3.27
SVICRSLPEAMGPGESGQPPPAC [G10A]	2.59
SVICRSLPEPMGPGESGQPPPAC [G10P]	1.88
SVICRSLPELMGPGESGQPPPAC [G10L]	1.51
SVICRSLPETMGPGESGQPPPAC [G10T]	1.03
SVICRSLPEEMGPGESGQPPPAC [G10E]	1.91
SVICRSLPEFMGPGESGQPPPAC [G10F]	1.89

Variant	protein stability index
SVICRSLPEIMGPGESGQPPPAC [G10I]	1.95
SVICRSLPESMGPGESGQPPPAC [G10S]	3.04
SVICRSLPEYMGPGESGQPPPAC [G10Y]	1.91
SVICRSLPECMGPGESGQPPPAC [G10C]	1.95
SVICRSLPEKMGPGESGQPPPAC [G10K]	1.91
SVICRSLPEGMGPGQSGQPPPAC [E15Q]	1.16
SVICRSLPEGMGPGDSGQPPPAC [E15D]	2.44
SVICRSLPEGMGPGHSGQPPPAC [E15H]	1.71
SVICRSLPEGMGPGLSGQPPPAC [E15L]	1.02
SVICRSLPEGMGPGSSGQPPPAC [E15S]	2.68
SVICRSLPEGMGPGCSGQPPPAC [E15C]	1.01
SVICRSLPEGMGPGPSGQPPPAC [E15P]	1.73
SVICRSLPEGMGPGASGQPPPAC [E15A]	1.09
SVICRSLPEGMGPGNSGQPPPAC [E15N]	1.8
SVICRSLPEGMGPGRSGQPPPAC [E15R]	1.6
SVICRSLPEGMGPGYSGQPPPAC [E15Y]	1.66
SVICRSLPEGMGPGGSGQPPPAC [E15G]	1.82
SVICRSLPEGMGPGISGQPPPAC [E15I]	2.1
SVICRSLPEGMGPGKSGQPPPAC [E15K]	1.62
SVICRSLPEGMGPGMSGQPPPAC [E15M]	2.4
SVICRSLPEGMGPGFSGQPPPAC [E15F]	2.49
SVICRSLPEGMGPGVSGQPPPAC [E15V]	2.44
SVICRSLPEGMGPGTSGQPPPAC [E15T]	2.01
SVICRKLPEGMGPGESGQPPPAC [S6K]	2.28
SVICRYLPEGMGPGESGQPPPAC [S6Y]	2.25

Variant	protein stability index
SVICRPLPEGMGPGESGQPPPAC [S6P]	2.05
SVICRQLPEGMGPGESGQPPPAC [S6Q]	2.08
SVICRTLPEGMGPGESGQPPPAC [S6T]	2.07
SVICRLLPEGMGPGESGQPPPAC [S6L]	1.6
SVICRDLPEGMGPGESGQPPPAC [S6D]	2.54
SVICRMLPEGMGPGESGQPPPAC [S6M]	1.68
SVICRALPEGMGPGESGQPPPAC [S6A]	2.01
SVICRILPEGMGPGESGQPPPAC [S6I]	1.43
SVICRRLPEGMGPGESGQPPPAC [S6R]	1.95
SVICRHLPEGMGPGESGQPPPAC [S6H]	2.71
SVICRCLPEGMGPGESGQPPPAC [S6C]	2.03
SVICRELPEGMGPGESGQPPPAC [S6E]	3.01
SVICRSLPEGMGPGEAGQPPPAC [S16A]	1.97
SVICRSLPEGMGPGEDGQPPPAC [S16D]	2.2
SVICRSLPIGMGPGESGQPPPAC [E9I]	1.99
SVICRSLPWGMGPGESGQPPPAC [E9W]	1.68
SVICRSLPDGMGPGESGQPPPAC [E9D]	2.97
SVICRSLPQGMGPGESGQPPPAC [E9Q]	1.83
SVICRSLPGGMGPGESGQPPPAC [E9G]	2.54
SVICRSLPRGMGPGESGQPPPAC [E9R]	1.91
SVICRSLPCGMGPGESGQPPPAC [E9C]	1.02
SVICRSLPKGMGPGESGQPPPAC [E9K]	1.7
SVICRSLPLGMGPGESGQPPPAC [E9L]	1.23
SVICRSLPTGMGPGESGQPPPAC [E9T]	1.7
SVICRSLPSGMGPGESGQPPPAC [E9S]	1.5

Variant	protein stability index
SVICRSLPFGMGPGESGQPPPAC [E9F]	1.86
SVICRSLPMGMGPGESGQPPPAC [E9M]	1.55
SVICRSLPNGMGPGESGQPPPAC [E9N]	1.93
SVICRSLPHGMGPGESGQPPPAC [E9H]	1.77
SVICRSLPYGMGPGESGQPPPAC [E9Y]	1.85
SVICNSLPEGMGPGESGQPPPAC [R5N]	1.7
SVICKSLPEGMGPGESGQPPPAC [R5K]	2.32
SVICSSLPEGMGPGESGQPPPAC [R5S]	2.65
SVICESLPEGMGPGESGQPPPAC [R5E]	2.46
SVICTSLPEGMGPGESGQPPPAC [R5T]	2.1
SVICISLPEGMGPGESGQPPPAC [R5I]	1.44
SVICASLPEGMGPGESGQPPPAC [R5A]	1.88
SVICCSLPEGMGPGESGQPPPAC [R5C]	2.28
SVICHSLPEGMGPGESGQPPPAC [R5H]	2.73
SVICLSLPEGMGPGESGQPPPAC [R5L]	1.66
SVICYSLPEGMGPGESGQPPPAC [R5Y]	1.46
SVICGSLPEGMGPGESGQPPPAC [R5G]	2.09
SVICFSLPEGMGPGESGQPPPAC [R5F]	1.51
SVICQSLPEGMGPGESGQPPPAC [R5Q]	2.04
SVICPSLPEGMGPGESGQPPPAC [R5P]	2.59
SVICDSLPEGMGPGESGQPPPAC [R5D]	2.56
SVICMSLPEGMGPGESGQPPPAC [R5M]	1.8
